Experimental data reported in patent US20190310251A1.
Values belong to the substance of their own block, whether it stands above or below them.

How the values were obtained:
CD20 = CD20 (UniProt P11836); assay: cell-based or functional assay
[1] = biological target: membrane-bound non-cleavable TNFα (human) (UniProt P01375); assay: cell-based or functional assay
UniProt P01375, sequence (P01375 whole entry A76L/V77L): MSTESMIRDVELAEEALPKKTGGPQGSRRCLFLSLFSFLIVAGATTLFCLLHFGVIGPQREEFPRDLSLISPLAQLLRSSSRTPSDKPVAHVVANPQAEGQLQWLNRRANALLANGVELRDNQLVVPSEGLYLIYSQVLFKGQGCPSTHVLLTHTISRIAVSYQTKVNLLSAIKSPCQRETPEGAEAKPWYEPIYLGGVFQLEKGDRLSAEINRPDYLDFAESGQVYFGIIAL

UniProt P11836, sequence (P11836 whole entry): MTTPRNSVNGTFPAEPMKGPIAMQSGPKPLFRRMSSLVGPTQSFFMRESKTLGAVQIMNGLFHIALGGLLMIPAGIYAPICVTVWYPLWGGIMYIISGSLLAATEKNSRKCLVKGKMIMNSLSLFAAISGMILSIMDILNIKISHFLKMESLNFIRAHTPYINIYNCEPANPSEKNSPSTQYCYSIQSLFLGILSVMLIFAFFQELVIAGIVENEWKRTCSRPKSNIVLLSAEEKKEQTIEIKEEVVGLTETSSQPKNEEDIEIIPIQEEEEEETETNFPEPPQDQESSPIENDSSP

EC50 of the ADCC reporter gene assay (NFAT effector cells & wild type Raji cells, no human serum) (CD20): 1.2 µg/mL
EC50 of the ADCC reporter gene assay (iLite effector cells & CD20++ target cells, no human serum) (CD20): 0.002 µg/mL
Substance: rituximab (antibody)

ADCC Reporter Gene Assay, Serum Sample/Control; Hum. Serum + adalimumab [1]: 2.39
ADCC Reporter Gene Assay, Serum Sample/Control; No Hum. Serum + adalimumab [1]: 2.65
ADCC Reporter Gene Assay, Target Positive Cells (RLU); Hum. Serum + adalimumab [1]: 27000 RLU
ADCC Reporter Gene Assay, Target Positive Cells (RLU); No Hum. Serum + adalimumab [1]: 30000 RLU
ADCC Reporter Gene Assay, Target+/Target-; Hum. Serum + adalimumab [1]: 12.3
ADCC Reporter Gene Assay, Target+/Target-; No Hum. Serum + adalimumab [1]: 17.6
Substance: adalimumab (antibody)

ADCC Reporter Gene Assay, Serum Sample/Control; Hum. Serum + Etanercept [1]: 2.77
ADCC Reporter Gene Assay, Serum Sample/Control; No Hum. Serum + Etanercept [1]: 2.66
ADCC Reporter Gene Assay, Target Positive Cells (RLU); Hum. Serum + Etanercept [1]: 23700 RLU
ADCC Reporter Gene Assay, Target Positive Cells (RLU); No Hum. Serum + Etanercept [1]: 22800 RLU
ADCC Reporter Gene Assay, Target+/Target-; Hum. Serum + Etanercept [1]: 13.1
ADCC Reporter Gene Assay, Target+/Target-; No Hum. Serum + Etanercept [1]: 14.1
Substance: etanercept (Fc fusion)
